Biological target: T1, CALRins5 (Type 2 mutant calreticulin) on ELF-153 MPL CALRins5 cells (human, UniProt P27797 18-417)
T1 sequence (looked up): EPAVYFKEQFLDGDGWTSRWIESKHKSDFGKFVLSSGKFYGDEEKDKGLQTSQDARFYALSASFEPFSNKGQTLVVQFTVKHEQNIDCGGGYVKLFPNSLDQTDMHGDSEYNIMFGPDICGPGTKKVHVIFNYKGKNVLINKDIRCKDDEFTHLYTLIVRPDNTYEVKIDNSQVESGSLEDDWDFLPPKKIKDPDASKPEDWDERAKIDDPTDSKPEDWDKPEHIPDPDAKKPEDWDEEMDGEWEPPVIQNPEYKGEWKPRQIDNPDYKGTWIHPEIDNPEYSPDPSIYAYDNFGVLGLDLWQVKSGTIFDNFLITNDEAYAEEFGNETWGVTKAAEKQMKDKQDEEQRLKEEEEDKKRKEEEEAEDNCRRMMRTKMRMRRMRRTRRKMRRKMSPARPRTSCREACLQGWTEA
Test: cell-based or functional assay

B1: C3CRB73, a CALRmut x CD3 bispecific antibody (bispecific antibody, human IgG1, kappa, L234A L235A)
heavy: EVQLLESGGGLVQPGGSLRLSCAVSGIDLSNNAISWVRQAPGKGLEYVGVIGNTGDTYYADSAKGRFTISRDSSKTTLYLQMNSLRAEDTAVYFCVRGPPSYSSSVKNIWGQGTLVTVSSASTKGPSVFPLAPSSKSTSGGTAALGCLVKDYFPEPVTVSWNSGALTSGVHTFPAVLQSSGLYSLSSVVTVPSSSLGTQTYICNVNHKPSNTKVDKKVEPKSCDKTHTCPPCPAPEAAGGPSVFLFPPKPKDTLMISRTPEVTCVVVSVSHEDPEVKFNWYVDGVEVHNAKTKPREEQYNSTYRVVSVLTVLHQDWLNGKEYKCKVSNKALPAPIEKTISKAKGQPREPQVYTLPPSREEMTKNQVSLSCAVKGFYPSDIAVEWESNGQPENNYKTTPPVLDSDGSFFLVSKLTVDKSRWQQGNVFSCSVMHEALHNRFTQKSLSLSPGK
light: DIQMTQSPSSVSASVGDRVTITCQSSQSVYNNNWLSWLQQKPGKAPKRLIYDASKLESGVPSRFSGSGSGTDFTLTISSVQPEDAATYYCAGGFTGNVYTFGGGTKVEIKRTVAAPSVFIFPPSDEQLKSGTASVVCLLNNFYPREAKVQWKVDNALQSGNSQESVTEQDSKDSTYSLSSTLTLSKADYEKHKVYACEVTHQGLSSPVTKSFNRGEC
chain: DIQMTQSPSSLSASVGDRVTITCRARQSIGTAIHWYQQKPGCAPKLLIKYASESISGVPSRFSGSGSGTDFTLTISSLQPEDFATYYCQQSGSWPYTFGQGTKLEIKGGGSGGSGGCPPCGGSGGEVQLVESGGGLVKPGGSLRLSCAASGFTFSRYNMNWVRQAPGKGLEWVSSISTSSNYIYYADSVKGRFTFSRDNAKNSLDLQMSGLRAEDTAIYYCTRGWGPFDYWGCGTLVTVSSEPKSSDKTHTCPPCPAPEAAGGPSVFLFPPKPKDTLMISRTPEVTCVVVSVSHEDPEVKFNWYVDGVEVHNAKTKPREEQYNSTYRVVSVLTVLHQDWLNGKEYKCKVSNKALPAPIEKTISKAKGQPREPQVYTLPPSREEMTKNQVSLWCLVKGFYPSDIAVEWESNGQPENNYKTTPPVLDSDGSFFLYSKLTVDKSRWQQGNVFSCSVMHEALHNHYTQKSLSLSPGK
median EC50 of ELF-153 MPL CALRins5 cells cytotoxicity using patient whole blood: 0.64 nM

— patent US20250376509A1 (Janssen / Centocor, published 2025)
